# Patent publication US20230357838
# Test system: T1, MGYPDa16 (unidentified)
# T1 sequence: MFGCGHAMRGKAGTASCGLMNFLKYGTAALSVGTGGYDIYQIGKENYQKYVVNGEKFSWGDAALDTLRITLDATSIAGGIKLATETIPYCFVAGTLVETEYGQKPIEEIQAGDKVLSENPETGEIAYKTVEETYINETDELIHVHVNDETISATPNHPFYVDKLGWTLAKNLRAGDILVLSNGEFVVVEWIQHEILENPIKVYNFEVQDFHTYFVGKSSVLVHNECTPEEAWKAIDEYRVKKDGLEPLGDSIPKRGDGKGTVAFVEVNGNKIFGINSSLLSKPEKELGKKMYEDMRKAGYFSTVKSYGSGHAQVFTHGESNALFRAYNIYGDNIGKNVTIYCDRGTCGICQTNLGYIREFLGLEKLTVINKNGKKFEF
substance,measurement,value
unmodified dsDNA (E. coli C2566 genomic),activity (fraction deaminated),0.78
